Assay results as given in patent publication US20120322975A1.

What was measured:
[1] = biological target: human factor D (purified from human serum) (human) (UniProt P00746); experiment: cell-based or functional assay
[2] = biological target: dog factor D (in dog serum) (dog); experiment: cell-based or functional assay; conditions: scale: times less effective than on human factor D

Sequence of UniProt P00746 (P00746 26-253 N180D): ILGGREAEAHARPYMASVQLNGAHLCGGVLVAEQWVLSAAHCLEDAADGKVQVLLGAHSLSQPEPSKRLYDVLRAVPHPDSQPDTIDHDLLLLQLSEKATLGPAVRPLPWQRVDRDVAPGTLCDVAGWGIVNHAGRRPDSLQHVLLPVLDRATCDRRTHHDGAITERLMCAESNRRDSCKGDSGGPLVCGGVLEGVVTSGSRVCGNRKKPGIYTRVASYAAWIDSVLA

For MAb 166-32 (antibody), the alternative pathway hemolytic activity of plasma from extracorporeal circuits (18 µg/ml antibody in human whole blood) (molar ratio (MAb:factor D)) [1] was 1.5, the inhibition of factor D dependent alternative pathway hemolysis of unsensitized rabbit RBCs (factor D depleted serum with supplemented factor D) [1] was 0.3 µg/mL and the neutralization of dog factor D in hemolytic assays, compared to human factor D [2] was greater than 10.
